The values below come from the supplement of paper PMC6755084.

The test system of the data set is F1*sub RNA substrate (template-directed ligation). Kind of data set: fraction ligated after 30 min (ligated reads / total reads); higher = more ligase activity; sequences stand for … in GAGACCGCAACTGAAAAGTTGT…AGTTCTGCACGTAGAAGCAAAAGGC
To be noted: 42 °C. The gist of the method: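 Templates from an oligo pool were PCR-amplified, transcribed with T7 and gel-purified to give the ribozyme variants. Ligated and unligated products were separated on gel, reverse transcribed using barcoded primers, and read on a MiSeq. A quality filter of ≥20 was applied to core bases. Fraction ligated was taken as ligated reads as a share of all reads per variant.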
On to TACACTTGTCGTAAACACTTTGGATGGTTGA [3d679], for which the fraction ligated came out at 0.101.

The sequence “TATCATTGTCGTAAAACTTTGGATGGGTTGA [3d1227]” gave a fraction ligated of 0.787.

Turning to ATCACTTGTCGTAAGACCTTGGATGGGTTGA [3d239], the fraction ligated turned out to be 0.716.

ATCATGTCGTAAGACACTTTGGATGGGTTGA [3d86]: the fraction ligated was 0.722.

As for “TATCATTGTCTAAGACACTTGGATGGGTTGA [3d1194]”, the fraction ligated was 0.78.

In turn, “TATCCTTGTGTAAGACATTTGGATGGGTTGA [3d1007]” came in with a fraction ligated of 0.796.

The sequence “TATCACTTGTGTAAGACACTTTGGTGGGTTA [3d1801]” showed a fraction ligated of 0.0254.

For the sequence “TATCACTTGTCGTAAGCCTTTGGAGGGTTGA [3d2117]”, the fraction ligated was 0.252.

In turn, TACACTTTCGTAAGACACTTTGGATGGGTTGA [2d51] came in with a fraction ligated of 0.0483.

For the sequence “TATCACTTGCGTAAGCACTTTGGATGGGTTA [3d1657]”, the fraction ligated was found to be 0.812.

In the case of “TATCACTTGTCGAAGACACTTTATGGGTTGA [3d1964]”, the fraction ligated was 0.16.

“TATCACTGTCGTAAGCCTTTGGATGGGTTGA [3d1409]” came in with a fraction ligated of 0.815.

In the case of TTCCTTGTCGTAAGACCTTTGGATGGGTTGA [3d308], the fraction ligated amounted to 0.737.

TATACTTGTCGTAGACCTTTGGATGGGTTGA [3d874] returned a fraction ligated of 0.616.

Sequence TTCACTTGTCGTAGACACTTTGGATGGTTGA [3d439] came in with a fraction ligated of 0.57.

For TATCTTGTCGTAAACACTTTGGATGGGTTGA [3d746], the fraction ligated stood at 0.76.

Sequence ATCACTGTCGTAAGACACTTTGGATGGTTGA [3d121] registered a fraction ligated of 0.46.

Take ATCACTTGTCGTAAGACACTTTGATGGTTGA [3d263]: the fraction ligated worked out at 0.0782.

In turn, ATCACTTGTGTAAGACATTTGGATGGGTTGA [3d163] registered a fraction ligated of 0.798.

The sequence “TATCATTTCGTAAGACACTTTGGAGGGTTGA [3d1152]” yielded a fraction ligated of 0.042.

For TATACTTGTCGTAGACACTTTGGATGGTTGA [3d880], the fraction ligated turned out to be 0.0359.

TTCCTTGTCGTAAGACACTTTGGATGGGTTG [3d316] registered a fraction ligated of 0.731.

ATCACTTGTGTAAGACACTTTGGAGGGTTGA [3d167] yielded a fraction ligated of 0.116.

As to TTCACTTGTCGTAAGCACTTTGATGGGTTGA [3d456], the fraction ligated was 0.0811.

ATACTTGTCGTAAGACATTTGGATGGGTTGA [3d59]: the fraction ligated was 0.446.

“TATCACTGTCGTAAGACCTTTGGATGGGTTG [3d1432]” gave a fraction ligated of 0.835.

The sequence TATACTTGTCGAAGACCTTTGGATGGGTTGA [3d861] gave a fraction ligated of 0.478.

For TACCTTGTCGTAAGACACTTTGGAGGGTTGA [3d543], the fraction ligated was found to be 0.24.

As for “TATCACTTGCGTAAGCACTTTGGTGGGTTGA [3d1654]”, the fraction ligated is 0.366.

For the sequence TATCCTTGCGTAAGACCTTTGGATGGGTTGA [3d991], the fraction ligated came out at 0.792.

Consider “TATCACTTGTCGTAAACATTGGATGGGTTGA [3d2074]”, for which the fraction ligated was 0.804.

On to “TATCACTTTCTAAACACTTTGGATGGGTTGA [3d1481]”, for which the fraction ligated was determined as 0.79.

“TATCACTTTCGTAAACATTTGGATGGGTTGA [3d1521]” yielded a fraction ligated of 0.787.

Take ATACTTGTCGTAAGACACTTTGGATGGGTTA [3d65]: the fraction ligated was determined as 0.0347.

TTCACTTTGTAAGACACTTTGGATGGGTTGA [3d355]: the fraction ligated came to 0.747.

Sequence “TATCATTGTCGAAGACACTTTGGATGGGTTG [3d1213]” gave a fraction ligated of 0.796.

“TATCATTGTCGTAAGACACTTTGGTGGTTGA [3d1283]” came in with a fraction ligated of 0.0252.

TTCACTTGTCGTAAGACACTTTGGAGGGTTG [3d503] displayed a fraction ligated of 0.103.

Sequence “TATCACTTGTCGTAAGACACTTTGGATGGGTT [2d298]” came in with a fraction ligated of 0.772.

“TATCACTTGTCGTAAGACCTTGGATGGGTTGA [2d262]” returned a fraction ligated of 0.791.

With ATCACTGTCGTAGACACTTTGGATGGGTTGA [3d111], the fraction ligated stood at 0.824.

As to TACACTTTCTAAGACACTTTGGATGGGTTGA [3d586], the fraction ligated turned out to be 0.0445.

In the case of “TATCATTGTCGTAAGACACTTTGGATGGTTGA [2d125]”, the fraction ligated worked out at 0.456.

In turn, TACACTTGTCGTAAGACCTTTGGATGGGTTGA [2d60] displayed a fraction ligated of 0.625.

Turning to “TATCACTTGCGTAGACACTTTGGTGGGTTGA [3d1634]”, the fraction ligated came to 0.0947.

The sequence “TATCACTTGTGTAAACACTTTGGATGGGTTA [3d1752]” yielded a fraction ligated of 0.805.

As for “TATCCTTGTCGTAAGCACTTTGGAGGGTTGA [3d1071]”, the fraction ligated was 0.0111.

For the sequence ATCACTTGTCTAAGACACTTGGATGGGTTGA [3d178], the fraction ligated stood at 0.73.

As for TATCCTTGCGTAAGACACTTTGGTGGGTTGA [3d995], the fraction ligated was 0.131.

Turning to “TATCACTTTCGTAAGACACTTTGGAGGTTGA [3d1578]”, the fraction ligated worked out at 0.0266.

Turning to “TATCACTTGTCTAAACACTTTGGATGGGTTG [3d1845]”, the fraction ligated worked out at 0.792.

For TTCACTTTCGTAAGAACTTTGGATGGGTTGA [3d361], the fraction ligated was found to be 0.832.

In turn, TACACTTGTCGTAAGACACTTTGGAGGTTGA [3d731] showed a fraction ligated of 0.

In turn, TACACTTGTCGAAGACATTTGGATGGGTTGA [3d651] came in with a fraction ligated of 0.444.

In turn, “TATCATTGTCGTAAGACACTTGGTGGGTTGA [3d1271]” showed a fraction ligated of 0.482.

For ATCCTGTCGTAAGACACTTTGGATGGGTTGA [3d67], the fraction ligated was determined as 0.683.

Take TACACTTTCGAAGACACTTTGGATGGGTTGA [3d587]: the fraction ligated turned out to be 0.0357.

The sequence “TATCACTTTGTAAGACACTTTGGATGGGTTG [3d1478]” gave a fraction ligated of 0.82.

ATCACTTCGTAAGACACTTTGGATGGGTTGA [3d106]: the fraction ligated was 0.761.

As to “TATCCTTGTCGTAAGACATTTGGTGGGTTGA [3d1092]”, the fraction ligated was 0.237.

Consider “TATCACTTGTGTAAGACATTTGGATGGGTTG [3d1785]”, for which the fraction ligated stood at 0.838.

For “TATCCTTGTGTAAGACACTTTGGATGGTTGA [3d1012]”, the fraction ligated amounted to 0.0285.

“TATCACTTGTCGTAAGCACTTTGGTGGTTGA [3d2142]” showed a fraction ligated of 0.118.

Sequence TATACTTGTGTAAGCACTTTGGATGGGTTGA [3d832] showed a fraction ligated of 0.776.

ATCATTGTCGTAAGACCTTTGGATGGGTTGA [3d96] displayed a fraction ligated of 0.717.

On to ACACTTGTCGTAAGACACTTTGGATGGGTTG [3d45], for which the fraction ligated came to 0.739.

On to TATCACTTGCGTAAGACACTTTGGATGGGTTGA [1d9], for which the fraction ligated is 0.85.

Sequence TTCACTTGTCGTAAGACACTTTGGATGGTTA [3d504] registered a fraction ligated of 0.636.

The sequence “TATCACTTGTCGTAACACTTTGGATGGGTTA [3d2001]” returned a fraction ligated of 0.545.

TAACTTGTGTAAGACACTTTGGATGGGTTGA [3d512] came in with a fraction ligated of 0.547.

For the sequence “TATCATTGTCGTAGACACTTTGGATGGGTTA [3d1225]”, the fraction ligated is 0.595.

The sequence “TATCACTTGTCGTAAACATTTGGATGGGTTGA [2d236]” returned a fraction ligated of 0.83.

TTCACTTGTCAAGACACTTTGGATGGGTTGA [3d402] returned a fraction ligated of 0.719.

On to ATCACTTGTCTAAGAACTTTGGATGGGTTGA [3d175], for which the fraction ligated turned out to be 0.728.

With “TATCACTTGTCGTAAGACCTTTGATGGGTTGA [2d263]”, the fraction ligated is 0.76.

ATACTTGTCGTAAGACACTTTGGAGGGTTGA [3d63] gave a fraction ligated of 0.0364.

“TATCACTTTCGTAAGACACTTTGGATGGGTTA [2d161]” displayed a fraction ligated of 0.751.

“TATCACTTGCGTAAGCACTTTGATGGGTTGA [3d1653]” returned a fraction ligated of 0.802.

TATCCTTGTCGTAAGACACTTTGGATGGGTTGA [1d5] gave a fraction ligated of 0.789.

“TATCACTTGTCGTAGACATTTGATGGGTTGA [3d2029]” displayed a fraction ligated of 0.309.

Sequence TTCACTTGTCTAAGAACTTTGGATGGGTTGA [3d406] came in with a fraction ligated of 0.349.

In turn, ATCACTTGTCTAAGACACTTTGATGGGTTGA [3d179] returned a fraction ligated of 0.594.

“TATCACTGTCGAAGACACTTTGATGGGTTGA [3d1379]”: the fraction ligated came to 0.75.

For “TATCACTTGTCGAAGAACTTTGGAGGGTTGA [3d1939]”, the fraction ligated stood at 0.111.

The sequence “TATCACTTGTCGTAGACACTTTGGTGGGTTG [3d2051]” returned a fraction ligated of 0.101.

TACACTTGTCGTAAGCACTTTGATGGGTTGA [3d686] returned a fraction ligated of 0.0278.

For the sequence TACACTTGTCGTAAGAACTTTGGATGGGTTG [3d699], the fraction ligated was 0.00593.

As for ATCACTTGTCGTAAGAACTTTGGATGGTTGA [3d236], the fraction ligated is 0.273.

“TATCACTTGTGTAAGAACTTTGGATGGGTTA [3d1770]” gave a fraction ligated of 0.771.

TTCACTGTCGTAAGACCTTTGGATGGGTTGA [3d346] returned a fraction ligated of 0.795.

Regarding ATCACTTGTCGTAAGACACTTGGATGGGTTGA [2d18], the fraction ligated amounted to 0.761.

As for TCACTTGTCGTAAGACACTTTGGATGGGTTG [3d23], the fraction ligated was 0.797.

As for TATACTTGTCGAAGACACTTTGGATGGGTTGA [2d76], the fraction ligated is 0.761.

Sequence TTCACTTGTCGTAAGCACTTTGGATGGGTTA [3d460] came in with a fraction ligated of 0.0582.

In turn, “TATCACTTGTCGTAGACCTTTGGTGGGTTGA [3d2023]” yielded a fraction ligated of 0.234.

Sequence “TATCATTGTCGAAGACATTTGGATGGGTTGA [3d1206]” showed a fraction ligated of 0.794.

“TATCCTTGTCGTAAGACACTTTATGGGTTGA [3d1104]”: the fraction ligated was 0.0278.

The sequence TACCTTGTCGTAAGACACTTTGGATGGGTTG [3d546] had a fraction ligated of 0.719.
